{"source": "the supplement of paper PMC11908140", "parents": {"B1": {"name": "library; numbered along this chain (parent)", "chain": "MRKPRAAVGSGHRKQAASQEGRQKHAKNNSQAKPSACDGLARQPEEVVLQASVSSYHLFRDVAEVTAFRGSLLSWYDQEKRDLPWRRRAEDEMDLDRRAYAVWVSEVMLQQTQVATVINYYTGWMQKWPTLQDLASASLEEVNQLWAGLGYYSRGRRLQEGARKVVEELGGHMPRTAETLQQLLPGVGRYTAGAIASIAFGQATGVVDGNVARVLCRVRAIGADPSSTLVSQQLWGLAQQLVDPARPGDFNQAAMELGATVCTPQRPLCSQCPVESLCRARQRVEQEQLLASGSLSGSPDVEECAPNTGQCHLCLPPSEPWDQTLGVVNFPRKASRKPPREESSATCVLEQPGALGAQILLVQRPNSGLLAGLWEFPSVTWEPSEQLQRKALLQELQRWAGPLPATHLRHLGEVVHTFSHIKLTYQVYGLALEGQTPVTTVPPGARWLTQEEFHTAAVSTAMKKVFRVYQGQQPGTCMGSKRSQVSSPCSRKKPRMGQQVLDNFFRSHISTDAHSLNSAAQ"}}, "data": [{"variants_of": "B1", "test": "8OG:A repair function score (normalized; synonymous = 0, nonsense = -1) (normalized log-likelihood score); higher = more repair activity (WT-like)", "details": "with 8OG:A DNA repair reporter (GFP) in HEK-293 MUTYH KO cells", "in_short": "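With 10 pg/ml doxycycline, MUTYH knockout HEK-293 cells carrying lentiviral MUTYH cDNA NNN codon-scan libraries were co-transfected with mCherry and an 8OG:A GFP repair reporter. Viable mCherry+ cells were sorted into GFP+ (repair) and GFP− bins at 72 h, three replicates per tile, and tile amplicons were sequenced. Per-tile Rosace fitness scores were then normalized into a repair function score anchored on synonymous and nonsense distributions. Medians were fixed at 0 for synonymous and -1 for nonsense, excluding variants under 300 counts per million at the start.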", "values": [{"variant": "MRKPRAAVGSGHRKQAASQEGRQKHAKNNSQAKPSACDGLARQPEEVVLQASVSSYHLFRDVAEVTAFRGSLLSWYDQEKRDLPWRRRAEDEMDLDRRAYAVWVSEVMLQQTQVATVINYYTGWMQKWPTLQDLASASLEEVNQLWAGLGYYSRGRRLQEGARKVVEELGGHDPRTAETLQQLLPGVGRYTAGAIASIAFGQATGVVDGNVARVLCRVRAIGADPSSTLVSQQLWGLAQQLVDPARPGDFNQAAMELGATVCTPQRPLCSQCPVESLCRARQRVEQEQLLASGSLSGSPDVEECAPNTGQCHLCLPPSEPWDQTLGVVNFPRKASRKPPREESSATCVLEQPGALGAQILLVQRPNSGLLAGLWEFPSVTWEPSEQLQRKALLQELQRWAGPLPATHLRHLGEVVHTFSHIKLTYQVYGLALEGQTPVTTVPPGARWLTQEEFHTAAVSTAMKKVFRVYQGQQPGTCMGSKRSQVSSPCSRKKPRMGQQVLDNFFRSHISTDAHSLNSAAQ", "note": "[M173D]", "8OG:A repair function score": -0.926}, {"variant": "MRKPRAAVGSGHRKQAASQEGRQKHAKNNSQAKPSACDGLARQPEEVVLQASVSSYHLFRDVAEVTAFRGSLLSWYDQEKRDLPWRRRAEDEMDLDRRAYAVWVSEVMLQQTQVATVINYYTGWMQKWPTLQDLASASLEEVNQLWAGLGYYSRGRRLQEGARKVVEELGGHLPRTAETLQQLLPGVGRYTAGAIASIAFGQATGVVDGNVARVLCRVRAIGADPSSTLVSQQLWGLAQQLVDPARPGDFNQAAMELGATVCTPQRPLCSQCPVESLCRARQRVEQEQLLASGSLSGSPDVEECAPNTGQCHLCLPPSEPWDQTLGVVNFPRKASRKPPREESSATCVLEQPGALGAQILLVQRPNSGLLAGLWEFPSVTWEPSEQLQRKALLQELQRWAGPLPATHLRHLGEVVHTFSHIKLTYQVYGLALEGQTPVTTVPPGARWLTQEEFHTAAVSTAMKKVFRVYQGQQPGTCMGSKRSQVSSPCSRKKPRMGQQVLDNFFRSHISTDAHSLNSAAQ", "note": "[M173L]", "8OG:A repair function score": -0.00175}, {"variant": "MRKPRAAVGSGHRKQAASQEGRQKHAKNNSQAKPSACDGLARQPEEVVLQASVSSYHLFRDVAEVTAFRGSLLSWYDQEKRDLPWRRRAEDEMDLDRRAYAVWVSEVMLQQTQVATVINYYTGWMQKWPTLQDLASASLEEVNQLWAGLGYYSRGRRLQEGARKVVEELGGHNPRTAETLQQLLPGVGRYTAGAIASIAFGQATGVVDGNVARVLCRVRAIGADPSSTLVSQQLWGLAQQLVDPARPGDFNQAAMELGATVCTPQRPLCSQCPVESLCRARQRVEQEQLLASGSLSGSPDVEECAPNTGQCHLCLPPSEPWDQTLGVVNFPRKASRKPPREESSATCVLEQPGALGAQILLVQRPNSGLLAGLWEFPSVTWEPSEQLQRKALLQELQRWAGPLPATHLRHLGEVVHTFSHIKLTYQVYGLALEGQTPVTTVPPGARWLTQEEFHTAAVSTAMKKVFRVYQGQQPGTCMGSKRSQVSSPCSRKKPRMGQQVLDNFFRSHISTDAHSLNSAAQ", "note": "[M173N]", "8OG:A repair function score": -0.945}, {"variant": "MRKPRAAVGSGHRKQAASQEGRQKHAKNNSQAKPSACDGLARQPEEVVLQASVSSYHLFRDVAEVTAFRGSLLSWYDQEKRDLPWRRRAEDEMDLDRRAYAVWVSEVMLQQTQVATVINYYTGWMQKWPTLQDLASASLEEVNQLWAGLGYYSRGRRLQEGARKVVEELGGHFPRTAETLQQLLPGVGRYTAGAIASIAFGQATGVVDGNVARVLCRVRAIGADPSSTLVSQQLWGLAQQLVDPARPGDFNQAAMELGATVCTPQRPLCSQCPVESLCRARQRVEQEQLLASGSLSGSPDVEECAPNTGQCHLCLPPSEPWDQTLGVVNFPRKASRKPPREESSATCVLEQPGALGAQILLVQRPNSGLLAGLWEFPSVTWEPSEQLQRKALLQELQRWAGPLPATHLRHLGEVVHTFSHIKLTYQVYGLALEGQTPVTTVPPGARWLTQEEFHTAAVSTAMKKVFRVYQGQQPGTCMGSKRSQVSSPCSRKKPRMGQQVLDNFFRSHISTDAHSLNSAAQ", "note": "[M173F]", "8OG:A repair function score": -0.014}, {"variant": "MRKPRAAVGSGHRKQAASQEGRQKHAKNNSQAKPSACDGLARQPEEVVLQASVSSYHLFRDVAEVTAFRGSLLSWYDQEKRDLPWRRRAEDEMDLDRRAYAVWVSEVMLQQTQVATVINYYTGWMQKWPTLQDLASASLEEVNQLWAGLGYYSRGRRLQEGARKVVEELGGHKPRTAETLQQLLPGVGRYTAGAIASIAFGQATGVVDGNVARVLCRVRAIGADPSSTLVSQQLWGLAQQLVDPARPGDFNQAAMELGATVCTPQRPLCSQCPVESLCRARQRVEQEQLLASGSLSGSPDVEECAPNTGQCHLCLPPSEPWDQTLGVVNFPRKASRKPPREESSATCVLEQPGALGAQILLVQRPNSGLLAGLWEFPSVTWEPSEQLQRKALLQELQRWAGPLPATHLRHLGEVVHTFSHIKLTYQVYGLALEGQTPVTTVPPGARWLTQEEFHTAAVSTAMKKVFRVYQGQQPGTCMGSKRSQVSSPCSRKKPRMGQQVLDNFFRSHISTDAHSLNSAAQ", "note": "[M173K]", "8OG:A repair function score": -0.971}, {"variant": "MRKPRAAVGSGHRKQAASQEGRQKHAKNNSQAKPSACDGLARQPEEVVLQASVSSYHLFRDVAEVTAFRGSLLSWYDQEKRDLPWRRRAEDEMDLDRRAYAVWVSEVMLQQTQVATVINYYTGWMQKWPTLQDLASASLEEVNQLWAGLGYYSRGRRLQEGARKVVEELGGHPPRTAETLQQLLPGVGRYTAGAIASIAFGQATGVVDGNVARVLCRVRAIGADPSSTLVSQQLWGLAQQLVDPARPGDFNQAAMELGATVCTPQRPLCSQCPVESLCRARQRVEQEQLLASGSLSGSPDVEECAPNTGQCHLCLPPSEPWDQTLGVVNFPRKASRKPPREESSATCVLEQPGALGAQILLVQRPNSGLLAGLWEFPSVTWEPSEQLQRKALLQELQRWAGPLPATHLRHLGEVVHTFSHIKLTYQVYGLALEGQTPVTTVPPGARWLTQEEFHTAAVSTAMKKVFRVYQGQQPGTCMGSKRSQVSSPCSRKKPRMGQQVLDNFFRSHISTDAHSLNSAAQ", "note": "[M173P]", "8OG:A repair function score": -0.654}]}]}
